In the DeepSol protein solubility set:

Experiment: soluble on expression in E. coli; label from the status in PepcDB or PDB records

Row | Sequence | soluble on expression in E. coli
1 | MVILMRAPIVEVFSSIQGEGLLVGRRQIFVRFAGCNLNCSYCDTPESRDPSAGRLFTAPELTEIIEGLITPDFHSISITGGEPLLYPDFITELLEESPHRTLLETNGSLPSNAERIAHLFDYASVDIKIAEHFSDNLRSGTTESDISSPGDLIDREIQVINILISRGVNTYCKVVVMPTTGAGYIGALAERLLECVDEPERLPLVIQPCSPPEQWAQNTPRLLEMSQEAGKYMDVYVIPQMHRALGLR | soluble
2 | FLDGIDKAQEEHEKYHSNWRAMASDFNLPPVVAKEIVASCDKCQLKGEAMHGQVDCSPGIWQLDCTHLEGKVILVAVHVASGYIEAEVIPAETGQETAYFLLKLAGRWPVKTVHTDNGSNFTSTTVKAACDWAGIKQEDGIPYNPQSQGVIESMNKELKKIIGQVRDQAEHLKTAVQMAVFIHNKKRKGGIGGYSAGERIVDIIATDIQTKELQKQITKIQNFRVYYRDSRDPVWKGPAKLLWKGEGAVVIQDNSDIKVVPRRKAKIIRDYGKQMAGDDCVASRQDED | soluble
3 | MGSDKIHHHHHHMARKPRIHYPGALYHVILRGNARQDIFHDPEDRYRFYLFLQEGAERFGHRILAFCLMTNHVHLAVQVGEVPLSRFMQNITFRYTRWQNWRMGKTGHLFQGRYKSFLVDGDAYLQELVAYIHLNPVRAGMTTKLGSYTWSSHRAYLGKEIIPWLNTETVLATYSSDTSTARKQYATFISDRVKEGHREEFHGKGSSDSRVIGDDHFVEAILERADRLPLRRPGLDMVVEVIKRLYRLDEEELASPGQKRWAAEARGVAAWAVQEFSSATLTDLAKRFGRDVSSMSAAVRRLEQRRKIDQGIAERLERVGRELEGAIFQA | not soluble
4 | MGSDKIHHHHHHMGLLTKGSPLTWAETVPHIDYIKKHGIAQFINLYHRLKSRHGDQLKWGDEIEYTIVKFDDANKKVRVSCKAEELLNKLQAEEQVNAMLGTANRFLWRPEFGSYMIEGTPGMPYGGLIACFNIVEANMKLRRQDETCLSISFPSLGVPGFTFPEVAADRKNDDAANSVFWPEQAVFLGHPRFKNLTKNIKGRRGSKVAINVPIFKDTNTPSPFVEDLSALGGPDDTRDAKPDHIYMDHMGFGMGCCCLQVTFQAVNVDEARWLYDQLTPITPILLALSAATPIFRGKLSNVDSRWDIISASVDDRTPEERGLEPLKNSKWVIDKSRYDSTDCYIYPCSVGYNDIPLQYDETIYKQLIDGNIDEPLAKHIAHMFIRDPHQVFRERIEQDDEKSSEHFETIQSSNWMNMRFKPPPPDAPEIGWRVEFRPTEVQLTDFENAAYCCFVVLLTRMMISFRLTYLMPISMVTENMKRAQQKDAVLNQKFLFRKGLAECKSAPENLKGSEKCGPPSQDIEEMSIDEIINGKKNGFPGLISLIRQFLDSADVDVDTRCTISQYLNFISKRATGEINTLAHWTRGFVQSHPAYKHDSDVNDNIVYDLLKKMDAISNGEDHCEKLLGCYRSKTDHAISAAVRKAEEHMIVSSQKRAH | not soluble
5 | MGSDKIHHHHHHMMKRVLIKPLEPLMFRSQGEFEPLITGSHTAAQSLIIPRPSTIAGMLGYILFNKSSGTGDWLSDLTNLLDTIYGTFIETNGEYLFPLRMGNHLALVDQQHLINLPILLEKEYEQREKGIYELFYDKNKLFQIINHQDRIGISIDKSTRTVKEHYLYSARYLAFKKEVNYVIFIDNDAISDKINGKIVNFGGENRIAKLEVDDYKVDTSIEEEYYLTLSPILIPDEALDDLLDNISDYVTMGKVDKISLGFDIANTKRKEMLTAILEGSIVKRSIIDFIKKEINNNLLDRFTKYEKIGYNTLMNLCKLAFRKILS | not soluble
6 | MLGVVPGIGESIQAYKVAKAAKNLQGMKKALDKAATVATAQGYVSKTKIKIGQTELRVTAATDKQLLKAIGEGRTRQVK | not soluble
7 | MSLQKPKIAFIDDEPRILRSLKMHFRQSHDVFITTDASELMKYVSEHDVQVVISDQRMPDKQGTEVLRDIKAASPNTLRILLTGYADLNAVIDSVNEGEIYRYITKPWQNDELKQIVNKATEIAQQTQEITQNTEGHHHHHH | not soluble
8 | MSKQENIISHNTDSSLLNTVMQQMKERIINEGDKPHVTVETQLKILQELSQFGFGQFLIKNQGINGYWTHYMLTHPWFGRKTGLNNSREPLSNMECFLLDKAPTMLATQQRFELFLQENQKALVNGATLASIPCGMLGELLYLDFNGINNIQLMGIDYDQAALEDANALAKERNLDRFTTLVCRNAWELNIQEEFDLISSNGLNIYEPDDNKVLDLYQQFHTALKKGGKLVTSFLTPPPHLSSQCEWIFNKINPEDLLLQRIIFSDILNAKFQCYRSSQQTQKQLALAGFKNIHFLYDEAHLFPTVIAEK | not soluble
9 | MAELILNQRPYPRDLGKIVCVGRNYAAHAKELNNPIPSSPILFIKPASSAVPFGPVFSIPKDQGSVHHELEIAILIGKALSRASTEQVAESIAGIGLGLDLTLRDVQDQLKEKGHPWERAKSFDGACPLTEFVAVNLASEDEWQAIGLTLEKNGQFQQQGSSAEMLFPILPLIAHMSEHFSLQPGDVILTGTPAGVGPLEVGDSLSAKLSLEDNVLLTCDGVVI | soluble
10 | MGDRGYGGSRSYGGSSGGGSRGGYGGGGRGGGGGGYSGGRGGGYGGGGGGGYGGGGYGGGGRGGGRGGSNGSAGGRLRDVDWSAENLTPIEKDFYHENAAVSRREQYEIDQWVSANQVTLEGRGVPRPVFEFNEAPLPGQIHELLYGKFQKPTVIQSISWPIAMSGRDIISIAKTGSGKTLAFMLPALVHITKQAHRQRGEGPAVLVLLPTRELAQQVQEVSIDFCHSLGLKMTCLFGGASKGPQARDLERGVDIVVATPGRLLDFLDNGTTNMKKCSYLVLDEADRMLDMGFEPQIKKIIGQIRPDRQTLMFSATWPKEVRALASDFQKDAAFLNVGSLELAANHNITQVVDILEEHAKQAKLMELLNHIMNQKECKTIIFVETKRKADELTRAMRRDGWPTLCIHGDKNQGERDWVLQEFKAGKTPIMLATDVAARGLDVDDIKFVINYDYPNNSEDYVHRIGRTGRSDKKGTAYTFFTHTNASKAKDLLKVLDEAKQTVPQALRDMANRSYGGSNSRGRYGGGGFQKRGYGGNDNFAPKRPRYDNGGYGGGSGGGGRW | not soluble
11 | MGSDKIHHHHHHMSSVTLSGRGTLGDRQVYRLGYGAMQLAGPGVFGPPKDPEEAVRVLQAAVEAGINHIDTSDFYGPHVTNQLIRKALHPYPDDLCIVTKVSARRDEKGNWLPAMSPAELTQAVEDNLRHLGLEVLEVVNLRSMLSPHGPVEGSLEAPLATLLELKERGLIRHIGLSNVTAKQVADAQKMTPIVCVQNLYNVAHRADDALVDALAAQHIAWVPFFPLGGFTPLQAQELNEVAASLEATPMQVALAWLLQRAPNILLIPGTSSRTHLAENIAAAELVLPAEALRTLDNIATAARR | not soluble
12 | MNIDSDIFKIQSNNVLPSRGKILISEPFLRDATFGRSVVLLIDHTEEGSMGLIINKQLPIFVNDIIKEFKYIENIPLYKGGPIATDTLFYLHTLADIPGAIPISKGLYLNGDFDEIKKYILQGNKVDRYIRFFLGYSGWESEQLSTELKENTWLVSKEENAYLMNGDTKDMWKQALEKLGSKYETWSRFPQVPTFNLEHHHHHH | soluble
13 | MAQQGVFTLPANTSFGVTAFANAANTQTIQVLVDNVVKATFTGSGTSDKLLGSQVLNSGSGAIKIQVSVNGKPSDLVSNQTILANKLNFAMVGSEDGTDNDYNDGIAVLNWPLG | soluble
14 | MLVLRLFNTQKARLSQLPKASNEIVKDFISKLANAAGSRDKLSDCFTHDFQFFGCGYTVNKAPFVEKHLATPNPEPLIPKCSSFNGNDSKISFTASHQDGPRENIVDLVISREEKDSPWRLQSGKITNCP | not soluble
15 | MSSASAHHKKDLLDQVNNPVFLQDLRQQMIKFAVLQLASLPHAEDVVQDALASAFQHLDSFTGRAAFKTWVFAILKNKIIDLIRQKSRLVSMSELFKDEESELSIDALFDASGHWHKYEAPQAWLSPEEMMEQQDFWIIFDACLNHLPAKYAQVFMLREVIELNSSEICEKLELTVSHFNVLMYRSRTRLRECLENKWLLQEDCSC | not soluble
16 | MTHIIIDGDACPVVDSIIDLTTETGIFVTIIRSFSHFSNQLYPPHVSTLYVDDGPDAVDYKIVQLSTKDDIVVTQDYGLASLLVDKVLIVMHHNGKIYNSKNIQQLLDKRYINAQIRKQGGRHKGPPPFTKQDQKVFEQSLLKVIHRIKELDLEHHHHHH | soluble
17 | RAKQQAAKSERRVRELTEATNDILWEFTADLSEVLVINSAYEDIWGRSVAKLRENPHDFLNGIHPEDRELMKDTMQSLMDGESADVECRVNATEEYQRWVWIQGEPITNDAGETVRVAGFARDIT | soluble
18 | MGSDKIHHHHHHMIAKIIMGGGKMIKRVKTGIPGMDEILHGGIPERNIVLISGGPGTGKTIFSQQFIWNGLQMGEPGIYVALEEHPVQVKKNMEVFGWNVDPFEKEGKFAIVDAFTGGIGEYAEKEKYVVRDIDDVRELAEVLKRAVRETQAKRVVIDSVTTLYITKPAMARSIIFQLKRILSGLGCTSLFVSQVSVTEKGFGGPGVEHGVDGIIRLDLDEIDGELKRSLIVWKMRGTSHSMRRHPFEITDKGIVIYPSEGGEGR | not soluble
19 | MGSDKIHHHHHHMSAPQAMKVLVLCGPESSGKSWLSGVIQAHFGGLVVGEYVRHFIDQQCRDTCYADIPAIARGQLAWEDRAREQAPPLLILDTHLLSNMLWSHALFGDCPTWLEEALLARRYDLHLLLSPQGVDWIADGQRCQPDLSDRQRFFDDSQAWLRRHNQPHQILDGNWPQRQLLALQSVAKLLNSDAPSCPTEC | not soluble
20 | MQRFVFGGKLWKFNETFGCYDDYPHVAPFLAVEHFASFPVHPPTFIFSNAAVSNILSMEEIKSVLIRLDELISSNNLHNHPCLISQAGAQATMRLASKDQLRSDWNTSVEIPFCLYVTQNGVCPRQFDYEDLHKQSQWVALFEEVILPLDKMQGSKLSKIAPHQHSSVVKNAIMKSKREKKTSCKKHSKSISGIDSSSSGCNSL | not soluble
21 | MSLRVLVMVNDFPNKDNSYTANIFVKEQVKALSEFVEEINVIVPIPRGIELYRKTSYRDYAIGENVHVHFVKYINPLFPIAYSKLRREWIWLEHRALTNFIKKKDIKFDIIHAHYTWPSGAVGVKLKEEYKVPLVITEHTSQTFNRYITTRDPLAREIWQKADIIVRVRKGDIDLFSRVGITPSKIRYIPNGFDGNKFYPIPQEIARRKLNLVEYEKIIINVANMYSRVKGHEYLLRAFSKVAENTSDAFLILVGSGKLLSHLKKLADNLYLGHRVLFAGSKPHDEIPLWMNAADLFVLPSLRESFGVVQIEAMACGVPVVATRNGGSEEIIISEDYGLLCEPANPKELAEKILIALEKEWDREKIRKYAEQFTWENIAKKTLEVYRGVLKEGHHHHHH | soluble
22 | MEKIKYGFGEIEAAASDIQSTSGRINSLLEDLKAHIRPMAAAWEGESAQAYNEAQQQWDSSAAELNTILSTISNTVRQGNDRMSEVNRMAAASWS | not soluble
23 | AHHHHHHGSVIEEEGKVEILPRDVDLSKYVDSVEVDVDNFGDYHELRKELREKKMRFIDANVFIYAILKPKRELNEKELKIKRVSKEIFNRINGGEEVVTTVVHLSEVANVLEDAANLSFAISFLKDVLIKGNVIVEEVSDRDYMESVLLAEEKGVSINDALAYILMKRKGIEEIYTFDRHFENLDVRIVNS | soluble
